# According to patent US20170233490A1 (Hoffmann-La Roche, published 2017):
# B1: anti-HER3/HER4 antibody M-05-74 (antibody, V domains shown)
# VH: QVQLQQSGAELAKPGASVKMSCKTSGYTLTDYWIHWVKQRPGQGLEWIGYINPYTGYTESNQKFKDKATLTADKSSNTAYIQLSSLTSEDSAVYYCARPYYYGDYWGQGTTLTVSS
# VL: QIVLTQSPAIMSASPGERVTITCSASSSVSYMHWFQQKPGTSPKLLIYSTSNLASGVPARFSGSGSGTSYSLTISRMEAEDAATYYCQQRSSYPFTFGSGTKLEIK
# notes: murine monoclonal IgG from hybridoma (supernatant or purified), bivalent; also called M-074; M-5-74
# Legend:
# [1] = biological target: T1, human HER3 Extracellular Domain (ECD) (human, UniProt P21860 20-643); experiment: SPR Biacore T200, antibody captured, 25 C
# T1 construct: human recombinant, 68 kDa; 'closed' conformation without ligand; also called Her3 ECD; Her-3 ECD
# Procedure: (§1) A Biacore T200 instrument (GE Healthcare) was mounted with a CMS series sensor. The sensor was normalized in HBS-ET buffer (10 mM HEPES pH 7.4, 150 mM NaCl, 3 mM EDTA, 0.05% w/v Tween 20) according to the manufacturer's instructions. The sample buffer was the system buffer supplemented with 1 mg/ml CMD (Carboxymethyldextran, Sigma #86524). The system operated at 25° C. 6500 RU RAM-Fcγ (relative units of Fcγ-fragment RamIgG, GE Healthcare) were immobilized according to the manufacturer's instructions using amine coupling EDC/NHS chemistry on all four flow cells. The sensor was deactivated using 1M ethanolamine. […] Concentration dependent kinetics were measured. […] All analytes were injected for 5 min association time and 10 min dissociation time at 100 μl/min flow rate. The sensor capture system was regenerated by a 3 min injection at 10 μl/min of 10 mM glycine pH 1.7. Where possible kinetic data was evaluated using the Biacore T200 evaluation software.
# [2] = biological target: T2, human HER4 Extracellular Domain (ECD) (human, UniProt Q15303 26-651); experiment: SPR Biacore T200, antibody captured, 25 C
# T2 construct: also called Her4 ECD; HER4-ECD
# T2 sequence: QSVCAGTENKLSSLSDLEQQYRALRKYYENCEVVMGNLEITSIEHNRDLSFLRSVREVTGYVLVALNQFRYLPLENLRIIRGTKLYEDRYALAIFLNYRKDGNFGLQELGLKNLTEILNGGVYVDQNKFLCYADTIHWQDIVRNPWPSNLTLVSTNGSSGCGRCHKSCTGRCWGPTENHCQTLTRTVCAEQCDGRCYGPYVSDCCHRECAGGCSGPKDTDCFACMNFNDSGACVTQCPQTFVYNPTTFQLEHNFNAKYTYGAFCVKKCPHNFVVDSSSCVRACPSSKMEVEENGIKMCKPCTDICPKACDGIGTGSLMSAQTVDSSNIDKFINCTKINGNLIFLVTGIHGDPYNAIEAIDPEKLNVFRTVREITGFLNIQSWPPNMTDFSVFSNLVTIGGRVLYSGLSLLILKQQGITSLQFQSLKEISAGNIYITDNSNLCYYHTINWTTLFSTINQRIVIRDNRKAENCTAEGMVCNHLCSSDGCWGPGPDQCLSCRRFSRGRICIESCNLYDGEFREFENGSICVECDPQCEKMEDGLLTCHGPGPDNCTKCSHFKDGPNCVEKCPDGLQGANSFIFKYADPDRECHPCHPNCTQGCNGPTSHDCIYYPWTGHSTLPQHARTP
# Procedure: as §1
# [3] = biological target: T3, human HER1 Extracellular Domain (ECD) (human, UniProt P00533 25-645); experiment: SPR Biacore T200, antibody captured, 25 C
# T3 construct: also called Her1 ECD; HER1-ECD
# Procedure: as §1
# HER3 ECD-HRG complex = biological target: T4, HER3 ECD-HRG complex (human, UniProt P21860 20-643); experiment: SPR Biacore T200, antibody captured, 25 C
# T4 construct: HER3 ECD preincubated with a 3- to 6-fold molar excess of Heregulin ('open' conformation); biotinylated Her3-ECD in the ribosome display; also called HER3-ECD/HRG1β
# Procedure: as §1
# HER4 ECD-HRG complex = biological target: T5, HER4 ECD-HRG complex (human, UniProt Q15303 26-651); experiment: SPR Biacore T200, antibody captured, 25 C
# T5 construct: HER4 ECD preincubated with a 5-fold molar excess of Heregulin
# T5 sequence 1: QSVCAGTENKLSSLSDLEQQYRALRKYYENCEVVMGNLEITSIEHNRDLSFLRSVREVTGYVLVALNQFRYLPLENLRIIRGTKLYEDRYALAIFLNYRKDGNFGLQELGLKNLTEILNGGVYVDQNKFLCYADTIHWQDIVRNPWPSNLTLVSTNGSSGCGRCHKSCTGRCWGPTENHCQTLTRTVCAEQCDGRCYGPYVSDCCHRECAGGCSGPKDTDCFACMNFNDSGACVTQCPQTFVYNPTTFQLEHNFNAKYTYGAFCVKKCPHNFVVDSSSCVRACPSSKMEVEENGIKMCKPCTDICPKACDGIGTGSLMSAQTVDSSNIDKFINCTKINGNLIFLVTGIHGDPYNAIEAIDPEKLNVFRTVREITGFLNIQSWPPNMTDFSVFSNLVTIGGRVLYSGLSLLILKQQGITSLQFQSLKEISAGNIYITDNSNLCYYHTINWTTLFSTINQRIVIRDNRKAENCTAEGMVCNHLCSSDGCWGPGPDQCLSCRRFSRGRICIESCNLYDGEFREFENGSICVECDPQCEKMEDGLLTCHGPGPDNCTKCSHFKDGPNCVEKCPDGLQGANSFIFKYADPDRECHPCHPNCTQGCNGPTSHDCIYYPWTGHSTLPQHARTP
# T5 sequence 2: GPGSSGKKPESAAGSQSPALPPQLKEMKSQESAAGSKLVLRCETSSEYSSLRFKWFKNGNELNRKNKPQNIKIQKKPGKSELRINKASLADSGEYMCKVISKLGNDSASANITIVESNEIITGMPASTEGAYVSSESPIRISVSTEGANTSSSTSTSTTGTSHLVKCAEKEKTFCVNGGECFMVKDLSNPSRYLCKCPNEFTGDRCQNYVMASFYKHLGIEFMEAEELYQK
# Procedure: as §1
# TtSlyDcas = biological target: T6, TtSlyDcas; experiment: SPR Biacore T200, antibody captured, 25 C
# T6 construct: scaffold without hairpin insert, negative control
# T6 chain: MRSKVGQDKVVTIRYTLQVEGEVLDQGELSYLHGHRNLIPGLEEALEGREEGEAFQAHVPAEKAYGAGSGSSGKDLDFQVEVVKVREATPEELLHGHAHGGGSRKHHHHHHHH
# Procedure: as §1
# TtSlyDcys-Her3 = biological target: T7, TtSlyDcys-Her3; experiment: SPR Biacore T200, antibody captured, 25 C
# T7 chain: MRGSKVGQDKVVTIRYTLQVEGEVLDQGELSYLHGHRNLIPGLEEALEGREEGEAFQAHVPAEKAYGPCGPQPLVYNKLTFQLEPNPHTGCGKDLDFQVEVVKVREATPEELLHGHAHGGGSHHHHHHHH
# Procedure: as §1
# [4] = biological target: T8, human HER1 (full length, on cells) (human, UniProt P00533 25-1210); experiment: IHC (Ventana Benchmark XT) on formalin-fixed, paraffin-embedded HEK293 cells transiently transfected with full length HER1
# T8 construct: HEK293 cells transfected with full length HER1, fixed and embedded (IHC); also called EGFR
# Procedure: (§2) All selected clones were tested for reactivity and specificity in IHC. […] After an additional fixation in formalin overnight the Agarose blocks were embedded in paraffin. Untransfected HEK293 cells were used as negative controls and treated accordingly to the transfected cells. After paraffin embedding 3 μm thin sections were prepared using a microtome. The sections were mounted on glass microscopy slides and dried for 2 h. All further steps of the immunohistochemical staining procedure were carried out using a Ventana Benchmark XT. The slides were dewaxed and antigen retrieval was performed by applying heat for 1 hour. For antigen retrieval the Ventana buffer CC1 was used. The antibodies were used at a concentration of 1 μg/ml. For the detection of bound antibody the Ventana UltraView detection kit was used.
# [5] = biological target: T9, human HER2 (full length, on cells) (human, UniProt P04626 23-1255); experiment: IHC (Ventana Benchmark XT) on formalin-fixed, paraffin-embedded HEK293 cells transiently transfected with full length HER2
# T9 construct: HEK293 cells transfected with full length HER2 (IHC); MCF-7 cells (co-immunoprecipitation)
# Procedure: as §2
binder,measurement,setting,value
B1,Kd,[1],1.1 nM
same,MR (Molar Ratio),[1],0.1
same,koff,[1],0.00011 s⁻¹
same,kon,[1],96000 M⁻¹ s⁻¹
same,Kd,[2],51 nM
same,MR (Molar Ratio),[2],0.1
same,koff,[2],0.00082 s⁻¹
same,kon,[2],16000 M⁻¹ s⁻¹
same,binding result,[3],no binding (tested: up to 90 nM)
same,Kd,HER3 ECD-HRG complex,2.8 nM
same,MR (Molar Ratio),HER3 ECD-HRG complex,0.8
same,koff,HER3 ECD-HRG complex,0.00029 s⁻¹
same,kon,HER3 ECD-HRG complex,100000 M⁻¹ s⁻¹
same,Kd,HER4 ECD-HRG complex,8.1 nM
same,MR (Molar Ratio),HER4 ECD-HRG complex,0.8
same,koff,HER4 ECD-HRG complex,0.00081 s⁻¹
same,kon,HER4 ECD-HRG complex,99000 M⁻¹ s⁻¹
same,MR (Molar Ratio),TtSlyDcas,0
same,binding result,TtSlyDcas,no binding (tested: up to 90 nM)
same,Kd,TtSlyDcys-Her3,7.8 nM
same,MR (Molar Ratio),TtSlyDcys-Her3,1.9
same,koff,TtSlyDcys-Her3,0.00024 s⁻¹
same,kon,TtSlyDcys-Her3,30000 M⁻¹ s⁻¹
same,binding result,[4],no binding (tested: 1 µg/ml)
same,binding result,[5],no binding (tested: 1 µg/ml)
